Source: IntAct's records for PubMed 31515488

B1: Zinc finger protein Aiolos (Homo sapiens), Q9UKT9 (parent)
chain: MEDIQTNAELKSTQEQSVPAESAAVLNDYSLTKSHEMENVDSGEGPANEDEDIGDDSMKVKDEYSERDENVLKSEPMGNAEEPEIPYSYSREYNEYENIKLERHVVSFDSSRPTSGKMNCDVCGLSCISFNVLMVHKRSHTGERPFQCNQCGASFTQKGNLLRHIKLHTGEKPFKCHLCNYACQRRDALTGHLRTHSVEKPYKCEFCGRSYKQRSSLEEHKERCRTFLQSTDPGDTASAEARHIKAEMGSERALVLDRLASNVAKRKSSMPQKFIGEKRHCFDVNYNSSYMYEKESELIQTRMMDQAINNAISYLGAEALRPLVQTPPAPTSEMVPVISSMYPIALTRAEMSNGAPQELEKKSIHLPEKSVPSERGLSPNNSGHDSTDTDSNHEERQNHIYQQNHMVLSRARNGMPLLKEVPRSYELLKPPPICPRDSVKVINKEGEVMDVYRCDHCRVLFLDYVMFTIHMGCHGFRDPFECNMCGYRSHDRYEFSSHIARGEHRALLK
partner: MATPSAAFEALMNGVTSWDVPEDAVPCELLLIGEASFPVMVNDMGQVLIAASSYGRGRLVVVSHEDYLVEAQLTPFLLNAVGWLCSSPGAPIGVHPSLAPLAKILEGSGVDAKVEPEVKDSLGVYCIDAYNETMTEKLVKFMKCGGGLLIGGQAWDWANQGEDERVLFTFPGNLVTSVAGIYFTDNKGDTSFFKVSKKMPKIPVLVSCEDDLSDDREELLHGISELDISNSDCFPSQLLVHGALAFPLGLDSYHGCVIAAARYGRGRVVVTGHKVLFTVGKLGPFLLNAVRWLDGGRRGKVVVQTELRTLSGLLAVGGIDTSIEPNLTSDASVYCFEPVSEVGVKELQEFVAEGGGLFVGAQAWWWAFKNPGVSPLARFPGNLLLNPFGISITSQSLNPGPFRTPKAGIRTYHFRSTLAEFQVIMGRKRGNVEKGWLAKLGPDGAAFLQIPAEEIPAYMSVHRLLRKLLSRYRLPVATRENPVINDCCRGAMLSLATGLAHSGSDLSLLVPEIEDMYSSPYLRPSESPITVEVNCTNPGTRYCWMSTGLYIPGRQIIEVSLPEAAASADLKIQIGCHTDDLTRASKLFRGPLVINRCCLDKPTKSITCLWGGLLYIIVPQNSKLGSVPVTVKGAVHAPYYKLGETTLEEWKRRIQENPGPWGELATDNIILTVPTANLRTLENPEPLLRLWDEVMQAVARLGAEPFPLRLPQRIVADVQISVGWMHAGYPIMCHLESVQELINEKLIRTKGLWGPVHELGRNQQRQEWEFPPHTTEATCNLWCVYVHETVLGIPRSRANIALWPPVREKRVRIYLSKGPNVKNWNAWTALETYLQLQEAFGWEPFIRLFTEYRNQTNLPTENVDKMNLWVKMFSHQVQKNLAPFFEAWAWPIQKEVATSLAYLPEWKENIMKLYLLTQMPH
B2: Mannose-1-phosphate guanylyltransferase regulatory subunit alpha (Homo sapiens), Q96IJ6 (parent)
chain: MLKAVILIGGPQKGTRFRPLSFEVPKPLFPVAGVPMIQHHIEACAQVPGMQEILLIGFYQPDEPLTQFLEAAQQEFNLPVRYLQEFAPLGTGGGLYHFRDQILAGSPEAFFVLNADVCSDFPLSAMLEAHRRQRHPFLLLGTTANRTQSLNYGCIVENPQTHEVLHYVEKPSTFISDIINCGIYLFSPEALKPLRDVFQRNQQDGQLEDSPGLWPGAGTIRLEQDVFSALAGQGQIYVHLTDGIWSQIKSAGSALYASRLYLSRYQDTHPERLAKHTPGGPWIRGNVYIHPTAKVAPSAVLGPNVSIGKGVTVGEGVRLRESIVLHGATLQEHTCVLHSIVGWGSTVGRWARVEGTPSDPNPNDPRARMDSESLFKDGKLLPAITILGCRVRIPAEVLILNSIVLPHKELSRSFTNQIIL
B3: Ornithine decarboxylase antizyme 3 (Homo sapiens), Q9UMX2 (parent)
chain: MPCKRCRPSVYSLSYIKRGKTRNYLYPIWSPYAYYLYCYKYRITLREKMLPRCYKSITYKEEEDLTLQPRSCLQCSESLVGLQEGKSTEQGNHDQLKELYSAGNLTVLATDPLLHQDPVQLDFHFRLTSQTSAHWHGLLCDRRLFLDIPYQALDQGNRESLTATLEYVEEKTNVDSVFVNFQNDRNDRGALLRAFSYMGFEVVRPDHPALPPLDNVIFMVYPLERDVGHLPSEPP
partner: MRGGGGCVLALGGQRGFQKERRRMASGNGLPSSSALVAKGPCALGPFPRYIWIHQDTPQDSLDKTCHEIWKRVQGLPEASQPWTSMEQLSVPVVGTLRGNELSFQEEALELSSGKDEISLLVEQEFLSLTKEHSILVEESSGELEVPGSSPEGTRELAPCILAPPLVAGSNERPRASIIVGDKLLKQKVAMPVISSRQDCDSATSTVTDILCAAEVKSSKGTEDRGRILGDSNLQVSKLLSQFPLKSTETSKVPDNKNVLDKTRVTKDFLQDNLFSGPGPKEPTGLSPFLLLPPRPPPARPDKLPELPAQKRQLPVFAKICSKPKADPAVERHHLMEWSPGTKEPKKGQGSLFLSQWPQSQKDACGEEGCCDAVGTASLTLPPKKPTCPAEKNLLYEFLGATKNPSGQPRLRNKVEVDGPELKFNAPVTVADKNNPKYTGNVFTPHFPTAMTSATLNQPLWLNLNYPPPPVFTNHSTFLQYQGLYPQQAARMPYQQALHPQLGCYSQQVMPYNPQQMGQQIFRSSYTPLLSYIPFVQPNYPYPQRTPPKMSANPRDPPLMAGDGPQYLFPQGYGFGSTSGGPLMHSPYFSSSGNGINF
B4: Tuftelin-interacting protein 11 (Homo sapiens), Q9UBB9 (parent)
chain: MSLSHLYRDGEGRIDDDDDERENFEITDWDLQNEFNPNRQRHWQTKEEATYGVWAERDSDDERPSFGGKRARDYSAPVNFISAGLKKGAAEEAELEDSDDEEKPVKQDDFPKDFGPRKLKTGGNFKPSQKGFAGGTKSFMDFGSWERHTKGIGQKLLQKMGYVPGRGLGKNAQGIINPIEAKQRKGKGAVGAYGSERTTQSMQDFPVVDSEEEAEEEFQKELSQWRKDPSGSKKKPKYSYKTVEELKAKGRISKKLTAPQKELSQVKVIDMTGREQKVYYSYSQISHKHNVPDDGLPLQSQQLPQSGKEAKAPGFALPELEHNLQLLIDLTEQEIIQNDRQLQYERDMVVNLFHELEKMTEVLDHEERVISNLSKVLEMVEECERRMQPDCSNPLTLDECARIFETLQDKYYEEYRMSDRVDLAVAIVYPLMKEYFKEWDPLKDCTYGTEIISKWKSLLENDQLLSHGGQDLSADAFHRLIWEVWMPFVRNIVTQWQPRNCDPMVDFLDSWVHIIPVWILDNILDQLIFPKLQKEVENWNPLTDTVPIHSWIHPWLPLMQARLEPLYSPIRSKLSSALQKWHPSDSSAKLILQPWKDVFTPGSWEAFMVKNIVPKLGMCLGELVINPHQQHMDAFYWVIDWEGMISVSSLVGLLEKHFFPKWLQVLCSWLSNSPNYEEITKWYLGWKSMFSDQVLAHPSVKDKFNEALDIMNRAVSSNVGAYMQPGARENIAYLTHTERRKDFQYEAMQERREAENMAQRGIGVAASSVPMNFKDLIETKAEEHNIVFMPVIGKRHEGKQLYTFGRIVIYIDRGVVFVQGEKTWVPTSLQSLIDMAK
partner: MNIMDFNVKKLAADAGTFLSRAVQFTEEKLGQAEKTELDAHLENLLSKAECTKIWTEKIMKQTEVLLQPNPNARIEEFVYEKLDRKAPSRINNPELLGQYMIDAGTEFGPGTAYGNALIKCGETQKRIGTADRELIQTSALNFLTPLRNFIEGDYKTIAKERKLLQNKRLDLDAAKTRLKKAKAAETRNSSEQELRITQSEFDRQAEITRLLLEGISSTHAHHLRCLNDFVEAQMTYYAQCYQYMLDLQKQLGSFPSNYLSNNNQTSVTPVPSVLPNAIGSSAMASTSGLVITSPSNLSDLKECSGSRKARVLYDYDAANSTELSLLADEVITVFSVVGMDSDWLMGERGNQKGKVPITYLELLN

Variants of: B1
Details: with tcaf1_human TCAF1, Q9Y4C2
For N119D, the “effect of a mutation on the interaction” value was “with no effect”.

Variants of: B2
Details: with gmppb_human GMPPB
For V156I, the “effect of a mutation on the interaction” value was “with no effect”.

Variants of: B3
Details: with ca094_human C1orf94, Q6P1W5
With R193Q the “effect of a mutation on the interaction” value was “with no effect”. V174A was tested, and the “effect of a mutation on the interaction” value was “disrupting interaction strength”.

Variants of: B4
Details: with shlb1_human SH3GLB1, Q9Y371
In the case of R8Q, the “effect of a mutation on the interaction” value is reported as “with no effect”. For S688L, the “effect of a mutation on the interaction” value was “with no effect”.
